Results published in patent publication US12729239B2, “Anti-CEACAM5 antibodies and conjugates and uses thereof” (Merck Patent GmbH, priority 2020, dated 2026).

Experiments:
[1] = tested on: MDA-MB-231; experiment: Viability assay (Cell Titer-Glo), MDA-MB-231; format: cell-based; settings: Homo sapiens, read-out: Maximal effect compared to untreated controls at the highest tested concentration
Protocol: Cytotoxicity effects of the ADC on the cancer cell lines were measured by cell viability assays. Cells were seeded in a volume of 90 μL in 96-well plates the day before treatment. Test compounds (ADCs or free payloads) were formulated at 10-fold the starting concentration in cell culture medium. Test compounds were serial diluted (1:4) and 10 μL of each dilution was added to the cells in triplicates. Plates were cultured at 37° C. in a CO2 incubator for six days. For cell viability measurement, Cell Titer-Glo® reagent (Promega™ Corp, Madison, WI) was added to each well, and plates processed according to the manufacturer's instructions. Luminescence signals were measured using a Varioskan plate reader (Thermo Fisher). Luminescence readings were converted to % viability relative to untreated cells. Data was fitted with non-linear regression analysis, using log (inhibitor) vs. response, variable slope, 4-parameter fit equation using GraphPad Prism. Data is shown as % relative cell viability vs. molar compound concentration, error bars indicating standard deviation (SD) of triplicates. Geometric mean values of IC50s derived from multiple experiments were calculated.

[2] = in vivo; cited from earlier work
[3] = in vivo; cited from earlier work; remark: listed apart in the source
[4] = tested on: CEACAM5 from Macaca fascicularis; settings: cited from earlier work
Chain of CEACAM5 from Macaca fascicularis (as listed by the source): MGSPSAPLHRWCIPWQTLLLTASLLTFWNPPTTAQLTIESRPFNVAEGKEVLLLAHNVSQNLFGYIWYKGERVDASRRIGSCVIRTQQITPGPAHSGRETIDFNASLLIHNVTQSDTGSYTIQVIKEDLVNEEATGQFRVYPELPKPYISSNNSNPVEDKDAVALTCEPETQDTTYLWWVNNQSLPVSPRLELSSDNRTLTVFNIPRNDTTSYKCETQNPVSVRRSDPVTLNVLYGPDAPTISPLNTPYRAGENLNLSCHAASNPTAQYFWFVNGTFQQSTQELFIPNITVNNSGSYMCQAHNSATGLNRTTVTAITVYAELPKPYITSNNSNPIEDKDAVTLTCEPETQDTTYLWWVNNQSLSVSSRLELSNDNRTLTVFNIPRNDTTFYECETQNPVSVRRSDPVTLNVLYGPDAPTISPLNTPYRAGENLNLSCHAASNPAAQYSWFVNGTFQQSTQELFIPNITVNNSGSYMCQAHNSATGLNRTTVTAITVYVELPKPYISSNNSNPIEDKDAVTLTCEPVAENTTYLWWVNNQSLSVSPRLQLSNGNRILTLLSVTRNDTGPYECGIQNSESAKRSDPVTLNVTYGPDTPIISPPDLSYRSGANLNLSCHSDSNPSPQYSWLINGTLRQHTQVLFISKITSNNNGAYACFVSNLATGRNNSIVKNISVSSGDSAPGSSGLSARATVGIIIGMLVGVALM

[5] = target: T1, CEACAM-5 epitope in FFPE tissues/cells (Homo sapiens, UniProt P06731); experiment: IHC staining on FFPE cancer cell lines versus CEACAM5 mRNA expression; format: binding; settings: 104 cancer cell lines, CCLE dataset
T1 construct: formaldehyde fixed paraffin embedded (FFPE) cancer cell line microarrays (CMAs) and human tumor tissues; endogenous in cells; host or cells: 104 FFPE cancer cell lines (microarray)
T1 sequence (P06731 35-676): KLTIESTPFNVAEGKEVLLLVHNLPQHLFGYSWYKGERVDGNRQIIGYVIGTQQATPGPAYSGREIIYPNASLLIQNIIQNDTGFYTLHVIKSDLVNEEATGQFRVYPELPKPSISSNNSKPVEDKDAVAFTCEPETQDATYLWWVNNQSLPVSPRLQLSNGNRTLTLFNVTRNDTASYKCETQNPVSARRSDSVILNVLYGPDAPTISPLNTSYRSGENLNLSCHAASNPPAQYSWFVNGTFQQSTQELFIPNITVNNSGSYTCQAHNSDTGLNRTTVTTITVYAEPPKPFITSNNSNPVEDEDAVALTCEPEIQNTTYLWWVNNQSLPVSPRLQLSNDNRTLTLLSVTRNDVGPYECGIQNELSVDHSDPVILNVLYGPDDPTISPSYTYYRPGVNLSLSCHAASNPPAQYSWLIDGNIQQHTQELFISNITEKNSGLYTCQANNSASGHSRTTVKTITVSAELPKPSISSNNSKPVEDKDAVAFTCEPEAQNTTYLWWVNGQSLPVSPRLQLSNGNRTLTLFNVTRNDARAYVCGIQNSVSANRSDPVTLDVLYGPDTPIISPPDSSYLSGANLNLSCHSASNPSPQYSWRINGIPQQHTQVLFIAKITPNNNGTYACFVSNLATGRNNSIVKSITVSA
Protocol: For the IHC staining with the anti-CEACAM-5 antibody rb8G4, sections of 4 μm from formaldehyde fixed paraffin embedded (FFPE) cancer cell line microarrays (CMAs) and human tumor tissues were mounted on charged slides (SuperFrost Ultra Plus, Thermo Fisher Scientific or TOMO, Matsunami). The staining procedure was performed using a Discovery XT (Roche Diagnostics) staining platform. Following deparaffinization, the sections were heated for epitope retrieval in Tris-EDTA buffer pH 8 (CC1, Roche Diagnostics). The sections were incubated with the primary monoclonal antibody rb8G4 diluted to 0.5 or 0.7 μg/ml in phosphate-buffered saline (PBS) or antibody diluent buffer (DCS). The clone DA1E (rabbit monoclonal IgG, NEB) served as isotype control antibody. The primary antibodies were followed by the HQ anti-rabbit IgG detection kit (Roche Diagnostics). […]
CMAs and the TMA with human organ tissue were stained and scanned with the NanoZoomer (Hamamatsu) with a resolution of 0.46 μm/pixel. […] The scans of the CMAs were analyzed with the image analysis software HALO (Indica Labs, USA). For the determination of the amount of antigen present, positive brown stained area was calculated as percent area of the viable tissue area. Staining (arbitrary units) is calculated as Antibody staining (AU)=% positive tissue area*Average optic density (OD ranges from 0 to 1) of the brown colour. […]

## CC[C@@]1(O)C(=O)OCc2c1cc1n(c2=O)Cc2c-1nc1cc(F)c(C)c3c1c2[C@@H](N)CC3 [PAYLOAD, (1S,9S)-1-Amino-9-ethyl-5-fluoro-1,2,3,9,12,15-hexahydro-9-hydroxy-4-methyl-10H,13H-benzo(de)pyrano(3′,4′:6,7)indolizino(1,2-b)quinoline-10,13-dione]
[1]
  Emax: -92%

## Labetuzumab govitecan
[2]
  stability of the linker structure: significant instability

## SAR408701: Sanofi anti-CEACAM5 ADC: SAR408377 linked to DM4 via SPDB linker
[3]
  side effects: toxic side effects on several organs and tissues including the cornea of the eye

## hmn-14: known anti-CEACAM5 antibody as in labetuzumab govitecan; HC SEQ ID NO: 27, LC SEQ ID NO: 28
[4]
  cross-reactivity with CEACAM5 from Macaca fascicularis: not cross-reacting

B1: rb8G4: human/rabbit chimeric variant of mAb1; HC SEQ ID NO: 29, LC SEQ ID NO: 30 (antibody)
heavy: EVQLQESGPGLVKPSQTLSLTCTVSDGSVSRGGYYLTWIRQHPGKGLEWIGYIYYSGSTYFNPSLRSRVTMSVDTSKNQFSLKLSSVTAADTAVYYCARGIAVAPFDYWGQGTLVTVSSQPKAPSVFPLAPCCGDTPSSTVTLGCLVKGYLPEPVTVTWNSGTLTNGVRTFPSVRQSSGLYSLSSVVSVTSSSQPVTCNVAHPATNTKVDKTVAPSTCSKPTCPPPELLGGPSVFIFPPKPKDTLMISRTPEVTCVVVDVSEDDPEVQFTWYINNEQVRTARPPLREQQFNSTIRVVSTLPIAHEDWLRGKEFKCKVHNKALPAPIEKTISKARGQPLEPKVYTMGPPREELSSRSVSLTCMINGFYPSDISVEWEKNGKAEDNYKTTPAVLDSDGSYFLYSKLSVPTSEWQRGDVFTCSVMHEALHNHYTQKSISRSPGK
light: EIVLTQSPATLSVSPGERATLSCRTSQSVRSNLAWYQQKPGQAPRLLIYAASTRATGIPARFSGSGSGTEFTLTISSLQSEDFAVYYCQQYTNWPFTFGPGTKVDIKRDPVAPSVLLFPPSKEELTTGTATIVCVANKFYPSDITVTWKVDGTTQQSGIENSKTPQSPEDNTYSLSSTLSLTSAQYNSHSVYTCEVVQGSASPIVQSFNRGDC
modifications: HC of rb8G4; LC of rb8G4
[5]
  Pearson correlation coefficient of IHC staining signal with mRNA expression: 0.88
